Experimental data from US20170267730A1 (UNIVERSITY COURT OF THE UNIVERSITY OF EDINBURGH, published 2017).

B1: WT-BslA truncated, BslA42-181 (other)
chain: MRTQSTASLFATITGASKTEWSFSDIELTYRPNTLLSLGVMEFTLPSGFTANTKDTLNGNALRTTQILNNGKTVRVPLALDLLGAGEFKLKLNNKTLPAAGTYTFRAENKSLSIGNKFYAEASIDVAKRSTPPTQPCGCN
notes: In solution it is a mix of monomers and disulfide-linked dimers; also called wild-type biofilm-surface layer protein A; YuaB
B2: BslA-L77K truncated (other)
chain: MRTQSTASLFATITGASKTEWSFSDIELTYRPNTLKSLGVMEFTLPSGFTANTKDTLNGNALRTTQILNNGKTVRVPLALDLLGAGEFKLKLNNKTLPAAGTYTFRAENKSLSIGNKFYAEASIDVAKRSTPPTQPCGCN
notes: also called L77K BslA; L77K-BslA

How the values were obtained:
[1] = target: the molecule itself; test: size-exclusion chromatography with multiangle light scattering (self-association in solution, disulfide-linked dimers)
[2] = target: the molecule itself; test: TEM, uranyl acetate stain (self-assembly into a 2D lattice)
Description: Multiple domains of the WT-BslA lattice could be observed in any location on the grid. The observed domain areas varied from as small as 1000 nm² (˜50 BslA molecules) up to 200000 nm² (>10000 BslA molecules). Less ordered “inter-domain” areas were also observed. […] The largest BslA-L77K domain size observed was approximately […] (1250 BslA molecules).

Row | Protein | binding result [1] | binding result [2]
1 | B1 | binds | –
2 | B2 | – | binds
